Data from the supplement of paper PMC9170038.

System: MS2 coat protein
Experiment: apparent KD of MS2 coat protein; designed switch direction (-1 OFF switch, 1 ON switch): -1; higher = weaker reporter binding
Procedure, shortened: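 Three titration conditions were used: no input, 200 uM small-molecule ligand, and an oligonucleotide input. In each, SNAP-549-labelled MS2 coat protein was raised from 0.7 or 1.5 nM, doubling, to 3 µM over designed RNA switches transcribed on Illumina chips by stalled E. coli RNA polymerase. Curve fits of normalised cluster fluorescence gave values whose per-design median over clusters is the apparent KD.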

[1] = Eterna round: R95, input ligand: microRNA oligo, concentration not stated
[2] = Eterna round: R95, input ligand: FMN 200 uM
[3] = Eterna round: R95, input ligand: none
[4] = input ligand: microRNA oligo, concentration not stated

Row | Sequence | apparent KD of MS2 coat protein (input ligand: FMN 200 uM) [µM] | apparent KD of MS2 coat protein (input ligand: none) [µM] | apparent KD of MS2 coat protein [1] [µM] | apparent KD of MS2 coat protein [2] [µM] | apparent KD of MS2 coat protein [3] [µM] | apparent KD of MS2 coat protein [4] [µM]
1 | GGGCUGUCAGGAUAUGGGCCCGGGCCCGAAAGGGCCCGGGCCCAGAAGGGACAUGAGGAUCACCCAUGUGGCCC [-51.3, -50.3 kcal, A 22%] (Eterna round: R97, puzzle: Exclusion 4) | 0.043 | 0.0377 |  |  |  | 
2 | GAUCAACAUGAGGAUCACCCAUGUGAGGAUAUGAUACUAUGUACUUCGGUACAUAGUAUCAGAAGGCAUUAGGA [Ex1-3: 39] (puzzle: Exclusion 1) |  |  | 0.0523 |  |  | 
3 | UGUACGCGAGGAUAUACAUGAGGAUCACCCAUGUCAUAUGAAAUGUAAUGAGUAGCGGGUAGAAGGCGCUUUUG [Eternabot (L2) Solution 26] (Eterna round: R97, puzzle: Exclusion 3) | 0.0218 | 0.0313 |  |  |  | 
4 | CAGUACUGAGGAUAUACAUGAGGAUCACCCAUGUGCUCCAGCUAGGAAACUAGCAAAAGUAGAAGGCAGUACUG [828 mod 2 m8] (Eterna round: R97, puzzle: Exclusion 3) | 3.96 | 0.101 |  |  |  | 
5 | ACUUAUUGAGGAUAUACAUAAAUUUACAUGAGGAUCACCCAUGUUCUUCUAUGUAUAUAUGUAGAAGGCAGAAGAG [Mat - Exclusion 5 - JL Mod - D33] (Eterna round: R97, puzzle: Exclusion 5) | 0.0301 | 0.0172 |  |  |  | 
6 | UAUUACUCAGGAUAUAUGAUGUGAAACAUGAGGAUCACCCAUGUAAUAUUAUGGAUGUAAAUAGAAGGGAGAUUAU [Mat - Exclusion 5 - JL mod - D19] (puzzle: Exclusion 5) |  |  | 0.0518 | 0.0492 | 0.0646 | 
7 | CUUUAGUGAGGAUAUCAGUAGUAAUACAAUAGUAUUACUAUUGAGAAGGCACAUGAGGAUCACCCAUGUUCCUC [Mat - Exclusion 4 - Mod of Omei - D80] (puzzle: Exclusion 4) |  |  | 0.0272 |  |  | 
8 | AAUAAAGGAGGAUAUACUAAAAUAUGAAUAAAAUAAAUAAAACAUGAGGAUCACCCAUGUAGAAGGCCUAAUAA [JMF's Not so obvious solution 3] (puzzle: Exclusion 2) |  |  | 0.0239 | 0.0228 | 0.0252 | 
9 | UGUGCGUAUGUGAGGAUAUGCUGGUCCUUGGAUCGGCAGAAGGCACAUGAGGAUCACCCAUGUGGUGUCGUUCG [salish99_Bmod_ex4_097] (puzzle: Brourd's mod of Exclusion 4) |  |  | 0.206 |  |  | 
10 | AAUAAUAAGGAGGAUAUCGUAUCCGAAAGGAUACGAGAAGGCCUAACAUGAGGAUCACCCAUGUUCCUCAAUAA [Mat - Exclusion 6 - Eli Mod - D54] (puzzle: Exclusion 6) |  |  | 0.264 | 0.773 | 0.267 | 
11 | GUCGCCAGUGUCAGGAUAUGAUGGCCUCGACGCCGUUAGAAGGGACAUGAGGAUCACCCAUGUAACAAGCGACG [Eternabot (Original) Solution 42] (Eterna round: R97, puzzle: Brourd's mod of Exclusion 4) | 0.0313 | 0.0278 |  |  |  | 
12 | GUUGUUUAUGUAGGAUAUGCAAGGCGAGCCUAAGCAGAAGGACAUGAGGAUCACCCAUGUAUUGCGGUCUGCGUUCAGAUCGCU [salish99_ExNG1_r4_015] (Eterna round: R96, puzzle: Exclusion NG 1) | 0.164 | 0.0259 |  |  |  | 0.0173
13 | GUUGCGUUUGUGAGGAUAUGCUGGUCCUUGGUUCGGCAGAAGGCACAUGAGGAUCACCCAUGUGGUGUCGUUCC [salish99_Bmod_ex4_051] (puzzle: Brourd's mod of Exclusion 4) |  |  | 0.0133 |  |  | 
14 | AUAAGUAUAUAGGAUAUCUAGCUGGUAACAGCUAGAGAAGGAUGUACAUGAGGAUCACCCAUGUAAAUCGAUCA [Ex6/10-A2] (Eterna round: R97, puzzle: Exclusion 6) | 0.0185 | 0.0181 |  |  |  | 
15 | CUGAGGUAGCGGUCCUAUGACAUGAGGAUCACCCAUGUACCUUGCUUUGAGCUUUUAGCUCGUCUUAUGAUUCUCGG [Mat - Sensor v3 - turn-off var 1 - JL Mod - D43] (puzzle: Sensor v3, turn-off variant 1) |  |  | 0.235 | 0.271 | 0.446 | 
16 | AAGAAACAUGAGGAUCACCCAUGUCAGGAUAUCUCGAAAAGCAUAGAAAUAUGCGAAGAGAGAAGGGACUAUCC [ChP Ext 10-04-2015 #3] (puzzle: Exclusion 1) |  |  | 0.0237 | 0.0227 | 0.0316 | 
17 | UAUAGGCGAGGAUAUACUAACAAACGGAUCGCCAAACAAGAACUUGAGGAUCACCCAAGUAGAAGGCGCAAUUG [Gezaonsoma] (Eterna round: R97, puzzle: Exclusion 2) | 0.0158 | 0.0241 |  |  |  | 
18 | GCAGCAUAGAUGAAAAUCUGAUACAUGAGGAUCACCCAUGUACAGGAUAUGGUCUGGAUUACAGGCCAGAAGGGUACAAGCUGC [Eli exng3 - 012] (Eterna round: R96, puzzle: Exclusion NG 3) | 0.0157 | 0.0121 |  |  |  | 0.0104

Row | Sequence | apparent KD of MS2 coat protein (input ligand: FMN 200 uM) [µM] | apparent KD of MS2 coat protein (input ligand: none) [µM] | apparent KD of MS2 coat protein [1] [µM] | apparent KD of MS2 coat protein [2] [µM] | apparent KD of MS2 coat protein [3] [µM] | apparent KD of MS2 coat protein [4] [µM]
19 | GUUUCACAUGAGGAUCACCCAUGUGAGGAUAUAGAUUUGUUAGUCGUAAUUGAUAGAUUUAGAAGGCGCGUGAU [JR_Exc1_Sub002] (Eterna round: R97, puzzle: Exclusion 1) | 0.0274 | 0.0252 |  |  |  | 
20 | GGCUAGUCAGGAUAUACGAACAUGUCAAAAGACGUGAAGGGACAUGAGGAUCACCCAUGUAGAAGGGACUAGCA [salish99_ex2_r3_001] (puzzle: Exclusion 2) |  |  | 0.0235 |  |  | 
21 | AGCCAGCUAGGAUAUUGCAGUUGUAACAUGAGGAUCACCCAUGUGAUAGGUGUUUAGCUCCAAGAAGGAGCGCGGC [Eronsoti] (puzzle: Exclusion 5) |  |  | 0.0271 | 0.0887 | 0.028 | 
22 | UUUUAACAUGAGGAUCACCCAUGUGAGGAUAUCGAAAUUUAUAUUAAUAUUUAUUAUUCGAGAAGGCACAUUUU [JMF 61] (puzzle: Exclusion 1) |  |  | 0.119 |  |  | 
23 | AGCGCUUACGUAGGAUAUGCAUGAGGAUCACCCAUGCAACCACAUUUAACAUGAGGAUCACCCAUGUAGAAGGACGGGUGCGCA [pwkr exNG2 2xF5 1xFMN.2] (Eterna round: R96, puzzle: Exclusion NG 2) | 0.0678 | 0.0279 |  |  |  | 0.0204
24 | UAUGUGUCAGGAUAUUAAUUAGAACAGAAUUUAACAAUAAUUAAGAAGGGACAUGAGGAUCACCCAUGUUCAUC [JR_Ex4_Sub023] (Eterna round: R97, puzzle: Exclusion 4) | 0.0279 | 0.0233 |  |  |  | 
25 | CCGUUCCGUGUAGGAUAUUGGCCUACCACGGGCCGAGAAGGACAUGAGGAUCACCCAUGUAUGCUAUUAUCGCGCGUGGCGCCC [Design 99] (Eterna round: R96, puzzle: Exclusion NG 1) | 0.024 | 0.0218 |  |  |  | 0.0154
26 | GCACGGAGUGUAGGAUAUCUGUGCGAUUAGCUCAGAGAAGGACACAUGAGGAUCACCCAUGUGUAUCAACACAAUAAUCCGUGC [Eli exng1 - 071] (Eterna round: R96, puzzle: Exclusion NG 1) | 0.0148 | 0.0145 |  |  |  | 0.0131
27 | AUGUUACAUGAGGAUCACCCAUGUGAGGAUAUGAGUCAGUCACGGUGACGUGGCUGACUCAGAAGGCACUAUGG [JL-ex1-4.39 salish99 mod] (Eterna round: R97, puzzle: Exclusion 1) | 0.146 | 0.279 |  |  |  | 
28 | AAUGAGCUAGGAUAUACAUGAGGAUCACCCAUGUAAAAUAGGUCAUGGAUGAACCACUGUAGAAGGAGCAGGGC [Ateseszave] (puzzle: Exclusion 3) |  |  | 0.146 | 0.0956 | 0.105 | 
29 | ACUGGUCGAGGAUAUACAUGAGGAUCACCCAUGUGGUCACGUGACUUCGGUCACGAAUGUAGAAGGCGACCAGU [E3/3-A5] (Eterna round: R97, puzzle: Exclusion 3) | 0.0614 | 0.188 |  |  |  | 
30 | UAUUAGCUAGGAUAUACAUGAGGAUCACCCAUGUCACGGGUCCACUCGUCCUAUGCGUGUAGAAGGAGCGACCC [JL Ceriza mod 2] (puzzle: Exclusion 3) |  |  | 0.0206 |  |  | 
31 | CGAGUGUAAGGAUAUUCGGCGCCAGAGAACGAUCUGACGUAGAAGAAGGUACAUGAGGAUCACCCAUGUGGUUA [Geinzarace] (puzzle: Exclusion 4) |  |  | 0.102 | 0.0416 | 0.204 | 
32 | GAUCGACAUGAGGAUCACCCAUGUCAGGAUAUCGUCACUGGAGCCUCGGCUCCAGUGACGAGAAGGGAUAUAAU [E1/16-A2] (Eterna round: R97, puzzle: Exclusion 1) | 0.0316 | 0.032 |  |  |  | 
33 | UUAAUACAUGAGGAUCACCCAUGUCAGGAUAUUACGAUUACUCCGUGCCCAUUGAGAGUGAGAAGGGAUAUGGA [Eternabot (L2) Solution 58] (Eterna round: R97, puzzle: Exclusion 1) | 0.0197 | 0.0181 |  |  |  | 
34 | ACGAAACAUGAGGAUCACCCAUGUGAGGAUAUGUAAAUAGUAAACAAAUAAGAAAUAAACAGAAGGCACACAGG [JR_Exclusion1_Sub004] (Eterna round: R96, puzzle: Exclusion 1) |  |  |  |  |  | 0.0243
35 | UUUGUUGUUGUGAGGAUAUCGUAGUUAUUUUGUAACGAGAAGGCACAUGAGGAUCACCCAUGUUUUUUGAUGGU [JR_BMOE4_Sub063] (puzzle: Brourd's mod of Exclusion 4) |  |  | 0.0249 |  |  | 
